These results are taken from the nanobody polyreactivity screen of Harvey et al. (2022).

The data set is described as follows: yeast display, Sf9 membrane polyspecificity reagent, FACS + sequencing; frameworks hold sequencing errors. A digest of the protocol:
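Synthetic nanobody libraries on Saccharomyces cerevisiae BJ5465 were galactose-induced for 36–48 hours, stained 1 hour at 4 °C with 10% biotinylated, detergent-solubilized Sf9 membrane reagent and enriched on streptavidin microbeads. FACS then separated cells into low and high (top ~1%) gates by anti-HA (expression) and streptavidin (reagent binding) fluorescence. Genes were colony-PCR amplified, MiSeq 2 × 250 sequenced and CDR-length filtered. A clone's polyreactivity label is that of its gate of origin.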
With “QVQLVESGGGLVQAGGSLRLSCAASGFTFGSYAMGWYRQAPGKDRELVAAISSNGGNTYYADSVKGRFTISRDNAKNTVYLQMNSLKPEDTAVYYCARDRQSRSLLEYDFWGQGTQVTVSS”, the “polyreactivity (PSR sort gate)” value was “high polyreactivity”.

With “QVQLVESGGGLVQAGGSLRLSCAASGFTFGSYAMGWYRQAPGKEREFVAAIRRSGSSTYYADSVKGRFTISRDNAKNTVYLQMNSLKPEDTAVYYCAADVYRRLRRYRYYYWGQGTQVTVSS”, the “polyreactivity (PSR sort gate)” value is listed as “low polyreactivity”.

Consider “QVQLVESGGGLVQAGGSLRLSCAASGFTFGSYAMGWYRQAPGKERELVAAITCSGGSTYYADSVKGRFTISRDNAKNTVYLQMNSLKPEDTAVYYCNADVAGGYGWKSYHGYDYWGQGTQVTVSS”, for which the “polyreactivity (PSR sort gate)” value is given as “high polyreactivity”.

As for “QVQLVESGGGLVQAGGSLRLSCAASGFTFGSYAMGWYRQAPGKERELVAAITYSGSRTYYADSVKGRFTISRDNAKNTVYLQMNSLKPEDTAVYYCAAVTHYGFDYWGQGTQVTVSS”, the “polyreactivity (PSR sort gate)” value is listed as “high polyreactivity”.

For “QVQLVESGGGLVQAGGSLRLSCAASGFTFGSYARGWYRQAPGKERELVAAISWGGGSTYYADSVKGRFTISRDNAKNTVYLQMNSLKPEDTAVYYCNADAISSFGYWGQGTQVTVSS”, the “polyreactivity (PSR sort gate)” value is listed as “high polyreactivity”.

Take “QVQLVESGGGLVQAGGSLRLSCAASGFTFGSYVMGWYRQAPGKERELVADISIRGGSTYYADSVKGRFTISRDNAKNTVYLQMNSLKPEDTAVYYCNADPAFYYWEGIVGGADYDYWGQGTQVTVSS”: the “polyreactivity (PSR sort gate)” value is “low polyreactivity”.

For “QVQLVESGGGLVQAGGSLRLSCAASGFTFGTNAMGWYRQAPGKERELVATISARGARTNYADSVKGRFTISRDNAKNTVYLQMNSLKPEDTAVYYCAADPGPHRYSYDYWGQGTQVTVSS”, the “polyreactivity (PSR sort gate)” value was “high polyreactivity”.

Regarding “QVQLVESGGGLVQAGGSLRLSCAASGFTFGTNAMGWYSQAPGKERELVAAISGRVGSTYYADSVKGRFTISRDNAKNTVYFLMNSLKPEDTAVYYCAADTWKTWSPYLYYTYDSWGQGTQVTVSS”, the “polyreactivity (PSR sort gate)” value was “low polyreactivity”.

As to “QVQLVESGGGLVQAGGSLRLSCAASGFTFGTYAMGWYRQAPGKERELVAAINGNGGSTYYADSVKGRFTISRDNAKNTVYLQMNSLKPEDTAVYYCAAARRSGSTRRDYWGQGTQVTVSS”, the “polyreactivity (PSR sort gate)” value is given as “high polyreactivity”.

As to “QVQLVESGGGLVQAGGSLRLSCAASGFTFGTYAMGWYRQAPGKERELVARITSGGRTNYADSVKGRFTISRDNAKNTVYLQMNSLKPEDTAVYYCNAVNGYYWGSRFDYWGQGTQVTVSS”, the “polyreactivity (PSR sort gate)” value is “high polyreactivity”.

In the case of “QVQLVESGGGLVQAGGSLRLSCAASGFTFGVNAMGWYRQAPGKERELVAAISRSGGSTYYADSVKGRFTISRDNAKNTVYLEMNSLKPEDTAVYYCNKAYHRRDSEFGYWGQGTQVTVSS”, the “polyreactivity (PSR sort gate)” value is “high polyreactivity”.

As for “QVQLVESGGGLVQAGGSLRLSCAASGFTFGVYAMGWYRQAPGKERELVAAISRSSGRTYYADSVKGRFTISRDNAKNTVYLQMNSLKPEDTAVYYCAARGYTLSYVDMYYWGQGTQVTVSS”, the “polyreactivity (PSR sort gate)” value is given as “high polyreactivity”.

Regarding “QVQLVESGGGLVQAGGSLRLSCAASGFTFGVYAMGWYRQAPGKERELVAAISSTGGSTYYADSVKGRFRISRDNAKNTVYLQMKSLKPEDTAVYYCAADPYPEYIRYLPGVVYWGQGTQVTVSS”, the “polyreactivity (PSR sort gate)” value is on record as “low polyreactivity”.

Consider “QVQLVESGGGLVQAGGSLRLSCAASGFTFGWYAMGWYRQAPGKERELVAAISWSGGSTYYADSVKGRFTISRDNAKKTVYLQMNSLKPEDTAVYYCAAYPAYGGDYWGQGTQVTVSS”, for which the “polyreactivity (PSR sort gate)” value is “high polyreactivity”.

Turning to “QVQLVESGGGLVQAGGSLRLSCAASGFTFGWYDMGWYRQAPGKERELVASISWSGSSTYYADSVKGRFTISRDNAKNTVYLQLNSLKPEDTAVYYCNDVSVDYVNWYWYDYWGQGTQVTVSS”, the “polyreactivity (PSR sort gate)” value is on record as “high polyreactivity”.

In the case of “QVQLVESGGGLVQAGGSLRLSCAASGFTFGYNAMGWYRQAPGKERELVAVITQSGGRTYYADSVKGRFTISRDNAKNTVYLQMISLKPEDTAVYYCNKVPRVYGYVKGSDYWGQGTQVTVSS”, the “polyreactivity (PSR sort gate)” value was “high polyreactivity”.

On to “QVQLVESGGGLVQAGGSLRLSCAASGFTFGYYAMGWYRQAPGKERELVAAINWSGGRTYYADSVKGRFTISRDNAMNTVYLQMNRLKPEDTAVYYCAASSRTKRYYWGQGTQVTVSS”, for which the “polyreactivity (PSR sort gate)” value is “high polyreactivity”.

On to “QVQLVESGGGLVQAGGSLRLSCAASGFTFGYYAMGWYRQAPGKERELVAAISSSGGSTYYADSVKGRFTLSRDNAKNTVYLQMNSLKPEDTAVYYCAVVVFSRVYRYFTSDYWGQGTQVTVSS”, for which the “polyreactivity (PSR sort gate)” value is “high polyreactivity”.

As for “QVQLVESGGGLVQAGGSLRLSCAASGFTFGYYAMGWYRQAPGKERELVAGISRGGRTNYADSVKGRFTISRDNAKNTVYLQMNRLIPEDTAVFYCAARVVLSPGGYGYWGQGTQVTVSS”, the “polyreactivity (PSR sort gate)” value was “high polyreactivity”.

Turning to “QVQLVESGGGLVQAGGSLRLSCAASGFTFGYYAMGWYRQATGKERELVATITGSGVRTYYADSLKGRFTISRDNAKNSVYLQMNSLKPEDTAVYYCNKVFSIPWQGVRFDYWGQGTQVTVSS”, the “polyreactivity (PSR sort gate)” value is listed as “high polyreactivity”.

Take “QVQLVESGGGLVQAGGSLRLSCAASGFTFGYYTMGWYRQAPGKERELVAAISSSGGRTYYADSVKGRFTISRDNAKNTVYLQMNSLKPEDTAVYYCAARARWAGLRYTRYYYWGQGTQVTVSS”: the “polyreactivity (PSR sort gate)” value is reported as “high polyreactivity”.

For “QVQLVESGGGLVQAGGSLRLSCAASGFTFHLYAMGWYRQAPRKERELVAAISQSGDSTYYADTVKGRFTISRDNAKNTFYLQMNSLKPEDTAVYYFNADNDCVVWTYPFDFDYWGQGTQVTVSS”, the “polyreactivity (PSR sort gate)” value is listed as “low polyreactivity”.

“QVQLVESGGGLVQAGGSLRLSCAASGFTFHYNAMGWYRQAPGKEREFVAAISGSGDRTYYADSVKGRFTISRDNAKNTVYLQMNSLKPEDTAVYYCATSVRQNYFYSYDYWGQGTQVTVSS”: the “polyreactivity (PSR sort gate)” value was “high polyreactivity”.

As to “QVQLVESGGGLVQAGGSLRLSCAASGFTFHYYAMGWYRPAPGKERELVAAISRGGGNTYYADSVKGRFTISRDNAKNTVYLQMNSLKPEDTAVYYCAADSKYRFSHGLDYWGQGTQVTVSS”, the “polyreactivity (PSR sort gate)” value was “high polyreactivity”.

As to “QVQLVESGGGLVQAGGSLRLSCAASGFTFHYYAMGWYRQAPGKERELVAAISWSSGRTYYADSVKGRFTISRDNAKNTVYLQMNSLKPEDTAVYYCAASSYNRRDYWGQGTQVTVSS”, the “polyreactivity (PSR sort gate)” value was “high polyreactivity”.

Regarding “QVQLVESGGGLVQAGGSLRLSCAASGFTFIDYAMGWYRQAPGKERELVAAISKRGGSTYYADSVKGRFTISRDNAKNSVYLQMNSLKPEDTAVYYCNAKAYHQGYLTRDDYWGQGTQVTVSS”, the “polyreactivity (PSR sort gate)” value is “high polyreactivity”.

For the sequence “QVQLVESGGGLVQAGGSLRLSCAASGFTFIKYAMGWYRQAPGKEREFDATISWNGGNTYYADSVKGRFTISRDKAKNTVYLQMNSLKPEDTAVYYCAARVKYRTRGGTVVSYDYWGQGTQVTVSS”, the “polyreactivity (PSR sort gate)” value is listed as “high polyreactivity”.

On to “QVQLVESGGGLVQAGGSLRLSCAASGFTFILYAMGWYRQAPGKERELVAAITTSGGRTYYADSVKGRFTISRDTAKNTVYLQMNSLKPEDTAVYYCNARTTPKERDYWGQGTQVTVSS”, for which the “polyreactivity (PSR sort gate)” value is given as “high polyreactivity”.

For the sequence “QVQLVESGGGLVQAGGSLRLSCAASGFTFIPNAMGWYRQATGKERELVAAISTGGSTYYADSVKGRFTISRDNAKNTVSLQMNSLKPEDTAVYYCAAGILDLKLYFSSYDYWGQGTQVTVSS”, the “polyreactivity (PSR sort gate)” value is “low polyreactivity”.

Turning to “QVQLVESGGGLVQAGGSLRLSCAASGFTFIPYAMGWYRQAPGKERELVASITYSGGRTYYADSVKGRFTISRDNAKNTVYLQMNSLKPEDTAVYYCNARSWGGYYHWGQGTQVTVSS”, the “polyreactivity (PSR sort gate)” value is recorded as “high polyreactivity”.
